For one protein, Kd results are on record in patent US20200199192A1 (SHIRE NPS PHARMACEUTICALS, published 2020).

Data set [1] deals with the molecule itself. Briefly: NanoDSF at room temperature, self-association. From the text:
Only the tryptophan fluorescence from the protein contributes to the signal. If tryptophan is buried or stable, the peak is at 330 nm and if the tryptophan is exposed or flexible, the peak is at 350 nm.
Background: DSF heats the sample and reads unfolding from a dye or from intrinsic fluorescence.

Data set [2] deals with the molecule itself. Briefly: microscale thermophoresis (MST), self-association; MST. On the procedure: Microscale thermophoresis (MST) and nano differential scanning fluorimetry (NanoDSF) were performed to characterize the dimer-monomer transition. MST was used to determine the monomer/dimer equilibrium dissociation constant Kd. MST is based on thermodriven diffusion of molecules while NanoDSF is based on Trp fluorescence and is commonly used for thermostability Tm.

B1: teduglutide (peptide)
peptide: HGDGSFSDEMNTILDNLAARDFINWLIQTKITD
notes: also called Gattex
One may read the Kd as the free concentration of one partner at which half of the binding sites on the other are occupied at equilibrium, for simple one-to-one binding. Consider B1, for which the Kd came out at 77 µM in data set [1] and 24 µM in data set [2].
